From patent US20240301023A1 (PREVECEUTICAL MEDICAL, published 2024)
Square brackets hold non-standard residues; d marks the D form. Primed or numbered codes have the meaning given here. Ends that are not written are not given here. Phe(4-NO2) = N[C@@H](Cc1ccc([N+](=O)[O-])cc1)C(=O)O; Phe(4-Cl) = N[C@@H](Cc1ccc(Cl)cc1)C(=O)O; Phe(4-F) = N[C@@H](Cc1ccc(F)cc1)C(=O)O; Api = NC1(C(=O)O)CCNCC1; NMA″ = not defined here; NMA = N-methylarginine; GABA = NCCCC(=O)O; Sar = CNCC(=O)O

Assays:
Test in all cases: cell-based or functional assay
[1] = molecular target: T1, Kappa opioid receptor (KOR) (Homo sapiens (Human), UniProt P41145 1-380)
T1 sequence (P41145 whole entry, form in doubt): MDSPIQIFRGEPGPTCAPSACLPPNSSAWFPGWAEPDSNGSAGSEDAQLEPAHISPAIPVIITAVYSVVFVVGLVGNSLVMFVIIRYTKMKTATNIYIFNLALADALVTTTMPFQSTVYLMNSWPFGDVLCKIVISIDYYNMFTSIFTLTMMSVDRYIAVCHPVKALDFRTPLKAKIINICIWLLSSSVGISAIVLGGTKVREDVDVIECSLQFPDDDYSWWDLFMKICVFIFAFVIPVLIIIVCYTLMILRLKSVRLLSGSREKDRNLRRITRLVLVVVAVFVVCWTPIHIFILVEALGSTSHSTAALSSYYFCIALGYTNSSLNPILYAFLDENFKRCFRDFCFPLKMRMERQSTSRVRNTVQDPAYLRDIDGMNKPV

[2] = molecular target: Delta opioid receptor (DOR)
[3] = molecular target: Mu opioid receptor (MOR)
Sequence of Mu opioid receptor (MOR) (P35372 whole entry): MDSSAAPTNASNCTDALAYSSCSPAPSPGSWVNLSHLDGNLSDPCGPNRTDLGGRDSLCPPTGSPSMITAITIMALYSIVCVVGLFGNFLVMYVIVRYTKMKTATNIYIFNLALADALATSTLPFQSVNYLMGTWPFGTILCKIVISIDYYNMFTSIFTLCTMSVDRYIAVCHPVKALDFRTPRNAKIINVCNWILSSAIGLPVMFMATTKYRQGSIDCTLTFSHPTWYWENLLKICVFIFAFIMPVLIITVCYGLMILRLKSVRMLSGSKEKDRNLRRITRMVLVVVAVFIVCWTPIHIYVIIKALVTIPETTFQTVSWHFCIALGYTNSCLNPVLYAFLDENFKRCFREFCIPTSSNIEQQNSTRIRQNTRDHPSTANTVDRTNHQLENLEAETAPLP

[4] = molecular target: T1, Kappa opioid receptor (KOR); remark: listed apart in the source
[5] = molecular target: Delta opioid receptor (DOR); remark: listed apart in the source
[6] = molecular target: Mu opioid receptor (MOR); remark: listed apart in the source

Binder | cAMP assay (ALPHAScreen), result at 1 µM peptide [1] | cAMP assay (ALPHAScreen), result at 10 µM peptide [1] | cAMP assay (ALPHAScreen), result at 1 µM peptide [2] | cAMP assay (ALPHAScreen), result at 10 µM peptide [2] | cAMP assay (ALPHAScreen), result at 1 µM peptide [3] | cAMP assay (ALPHAScreen), result at 10 µM peptide [3] | Activity (EC50, nM), cAMP assay [4] [nM] | Activity (EC50, nM), cAMP assay [5] [nM] | Activity (EC50, nM), cAMP assay [6] [nM]
H-Y[Sar][Phe(4-Cl)]LR[dR]-NH2 [SEQ ID NO. 11: NH2-Tyr-Sar-(4-Cl)Phe-Leu-Arg-DArg-NH2] | 27.7 | 34 | -1.18 | 4.27 | -0.86 | 1.37 | 6.1 | > 10000 | > 10000
H-Y[Sar][Phe(4-NO2)]LR[dR]-{C7H14‑CONH2} [SEQ ID NO. 31: NH2-Tyr-Sar-(4-NO2)Phe-Leu-Arg-DArg-C7H14-CONH2] | – | – | – | – | – | – | 2.49 | > 10000 | > 10000
[dF][dF][dL][dK][Api]-OH (N-terminus assumed; SMILES CC(C)C[C@@H](NC(=O)[C@@H](Cc1ccccc1)NC(=O)[C@H](N)Cc1ccccc1)C(=O)N[C@H](CCCCN)C(=O)NC1(C(=O)O)CCNCC1) [CR845 (SEQ ID NO. 35: DPhe-DPhe-DLeu-DLys-Cap-CO2H)] | 25.9 | 34.6 | -5.72 | 3.27 | 0.37 | 8.07 | 0.37 | > 10000 | > 10000
H-Y[Sar][Phe(4-Cl)]LK[dR]-NH2 (SMILES CC(C)C[C@H](NC(=O)[C@H](Cc1ccc(Cl)cc1)NC(=O)CN(C)C(=O)[C@@H](N)Cc1ccc(O)cc1)C(=O)N[C@@H](CCCCN)C(=O)N[C@H](CCCNC(=N)N)C(N)=O) [SEQ ID NO. 16: NH2-Tyr-Sar-(4-Cl)Phe-Leu-Lys-DArg-NH2] | – | – | – | – | – | – | 26 | – | > 10000
H-Y[Sar][Phe(4-Cl)]LR[NMA″]-NH2 (reading uncertain; also: printed as NH2-Tyr-Sar-(4-Cl)Phe-Leu-Arg-NMA-NH2) [SEQ ID NO. 17: NH2-Tyr-Sar-(4-Cl)Phe-Leu-Arg-NMA-NH2] | – | – | – | – | – | – | 3.9 | – | > 10000
H-Y[Sar][Phe(4-NO2)]L[dK][dR]-NH2 [SEQ ID NO. 10: NH2-Tyr-Sar-(4-NO2)Phe-Leu-DLys-DArg-NH2] | 8.47 | 25.1 | -3 | -0.95 | -1.27 | 0.02 | – | – | –
H-Y[Sar][Phe(4-Cl)]LX[dR]-NH2 (not fully specified (residue 5); printed as NH2-Tyr-Sar-(4-Cl)Phe-Leu-NMA-DArg-NH2) [SEQ ID NO. 13: NH2-Tyr-Sar-(4-Cl)Phe-Leu-NMA-DArg-NH2] | – | – | – | – | – | – | 4.54 | > 10000 | > 10000
H-Y[Sar]FLRR-NH2 [SEQ ID NO. 2: NH2-Tyr-Sar-Phe-Leu-Arg-Arg-NH2] | 21.6 | 32.4 | -0.47 | 22 | -2.5 | 12.4 | 8.6 | > 10000 | 6700
H-Y[Sar][Phe(4-F)]LR[dR]-NH2 [SEQ ID NO. 12: NH2-Tyr-Sar-(4-F)Phe-Leu-Arg-DArg-NH2] | – | – | – | – | – | – | 6.7 | > 10000 | 3450
H-Y[Sar]FLR[dR]-NH2 [SEQ ID NO. 3: NH2-Tyr-Sar-Phe-Leu-Arg-DArg-NH2] | 27.2 | 43.6 | -2.27 | 2.24 | -0.68 | 2.17 | 74.7 | > 10000 | > 10000
H-Y[Sar][Phe(4-NO2)]L[NMA][dR]-NH2 [SEQ ID NO. 15: NH2-Tyr-Sar-(4-NO2)Phe-Leu-NMA-DArg-NH2] | – | – | – | – | – | – | 13.5 | 1320 | > 10000
H-F[Sar][Phe(4-NO2)]L[dR][dR]-NH2 (SMILES CC(C)C[C@H](NC(=O)[C@H](Cc1ccc([N+](=O)[O-])cc1)NC(=O)CN(C)C(=O)[C@@H](N)Cc1ccccc1)C(=O)N[C@H](CCCNC(=N)N)C(=O)N[C@H](CCCNC(=N)N)C(N)=O) [SEQ ID NO. 9: NH2-Phe-Sar-(4-NO2)Phe-Leu-DArg-DArg-NH2] | 2.46 | 23.1 | -0.5 | 1.83 | -0.97 | -0.64 | – | – | –
H-Y[Sar][Phe(4-NO2)]LRX-NH2 (not fully specified (residue 6); printed as NH2-Tyr-Sar-(4-NO2)Phe-Leu-Arg-NMA-NH2) [SEQ ID NO. 18: NH2-Tyr-Sar-(4-NO2)Phe-Leu-Arg-NMA-NH2] | – | – | – | – | – | – | – | > 10000 | > 10000
H-Y[Sar][Phe(4-NO2)]L[dR]R-NH2 [SEQ ID NO. 5: NH2-Tyr-Sar-(4-NO2)Phe-Leu-DArg-Arg-NH2] | 33.4 | 43.1 | 0.05 | 2.02 | -0.05 | 4.32 | – | – | –
H-Y[Sar]FL[dR][dR]-NH2 [SEQ ID NO. 7: NH2-Tyr-Sar-Phe-Leu-DArg-DArg-NH2] | 18.3 | 36 | -0.68 | 2.53 | 0.13 | 4.19 | – | – | –
H-Y[Sar][Phe(4-Cl)]LR[dR] (not fully specified (C-terminus); printed as NH2-Tyr-Sar-(4-Cl)Phe-Leu-Arg-DArg-C7H14-COOH) [SEQ ID NO. 28: NH2-Tyr-Sar-(4-Cl)Phe-Leu-Arg-DArg-C7H14-COOH] | – | – | – | – | – | – | 2.33 | > 10000 | > 10000
H-Y[Sar][Phe(4-Cl)]LR[dR]IR-NH2 [SEQ ID NO. 20: NH2-Tyr-Sar-(4-Cl)Phe-Leu-Arg-DArg-Ile-Arg-NH2] | – | – | – | – | – | – | – | 3580 | > 10000
H-Y[Sar]FL[dR]R-NH2 [SEQ ID NO. 6: NH2-Tyr-Sar-Phe-Leu-DArg-Arg-NH2] | 14.2 | 35.1 | -0.03 | 2.25 | 1.04 | 7.84 | – | – | –
H-Y[Sar][Phe(4-Cl)]LR[dR]-{C7H14‑CONH2} [SEQ ID NO. 24: NH2-Tyr-Sar-(4-Cl)Phe-Leu-Arg-DArg-C7H14-CONH2] | – | – | – | – | – | – | – | > 10000 | > 10000
H-Y[Sar][Phe(4-Cl)]LR[dR]I[dR]-NH2 [SEQ ID NO. 25: NH2-Tyr-Sar-(4-Cl)Phe-Leu-Arg-DArg-Ile-DArg-NH2] | – | – | – | – | – | – | – | > 10000 | 1610
H-Y[Sar][Phe(4-NO2)]LR[dR]-NH2 [SEQ ID NO. 4: NH2-Tyr-Sar-(4-NO2)Phe-Leu-Arg-DArg-NH2] | – | – | -0.75 | 2.04 | 0.17 | 2.52 | – | > 10000 | > 10000
H-Y[Sar][Phe(4-F)]L[NMA][dR]-NH2 [SEQ ID NO. 14: NH2-Tyr-Sar-(4-F)Phe-Leu-NMA-DArg-NH2] | – | – | – | – | – | – | 11.6 | 1660 | 4000
H-Y[GABA]FLRR-NH2 (SMILES CC(C)C[C@H](NC(=O)[C@H](Cc1ccccc1)NC(=O)CCCNC(=O)[C@@H](N)Cc1ccc(O)cc1)C(=O)N[C@@H](CCCNC(=N)N)C(=O)N[C@@H](CCCNC(=N)N)C(N)=O) [SEQ ID NO. 1: NH2-Tyr-Gaba-Phe-Leu-Arg-Arg-NH2] | 4.23 | 22.9 | 2.57 | 19.6 | -6.78 | 7.28 | – | – | –
